Read-outs that look alike come from different tables or passages of the source. Each block holds one binder with its values, some of them ahead of it.
What was measured:
[1] = biological target: T1, mouse SIRPα extracellular domain + His-tag (NP_031573) (mouse, UniProt P97797 32-373); assay: SPR, Ab captured, ECD-His analyte
T1 chain: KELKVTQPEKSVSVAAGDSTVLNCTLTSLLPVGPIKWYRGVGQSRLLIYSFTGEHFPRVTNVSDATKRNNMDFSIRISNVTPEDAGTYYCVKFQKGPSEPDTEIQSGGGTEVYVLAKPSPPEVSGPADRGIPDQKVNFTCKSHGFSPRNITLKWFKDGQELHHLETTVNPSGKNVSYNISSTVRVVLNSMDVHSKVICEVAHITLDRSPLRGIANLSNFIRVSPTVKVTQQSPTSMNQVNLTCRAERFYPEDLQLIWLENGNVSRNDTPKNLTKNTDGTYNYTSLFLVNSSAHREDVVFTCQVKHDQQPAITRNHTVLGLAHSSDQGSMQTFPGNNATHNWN
Description: The binding affinity of anti-SIRPα antibodies to the various SIRPα analytes is determined by surface plasmon resonance (SPR) using a ProteOn XPR36 (Bio-Rad). The running buffer for this experiment and all dilutions (except where stated) are done in 1×HBS-EP+. […] The sensorchip is deactivated with 1M ethanolamine HCl for 420 sec at a flowrate of 10 μl/min.
The analyte is injected over the captured antibody for 300 sec at a flowrate of 30 μl/min. The dissociation is done for 600 sec. Two-fold serial dilutions of each SIRP protein (Extracellular Domain+His-Tag) are injected as analyte with the highest concentrations indicated in table 36 below.

[2] = biological target: full-length human SIRPβ1 D→H on Expi-CHO cells (human, UniProt O00241 30-398); assay: flow cytometry, Expi-CHO cells
Chain of full-length human SIRPβ1 D→H on Expi-CHO cells (O00241 30-398 D130H): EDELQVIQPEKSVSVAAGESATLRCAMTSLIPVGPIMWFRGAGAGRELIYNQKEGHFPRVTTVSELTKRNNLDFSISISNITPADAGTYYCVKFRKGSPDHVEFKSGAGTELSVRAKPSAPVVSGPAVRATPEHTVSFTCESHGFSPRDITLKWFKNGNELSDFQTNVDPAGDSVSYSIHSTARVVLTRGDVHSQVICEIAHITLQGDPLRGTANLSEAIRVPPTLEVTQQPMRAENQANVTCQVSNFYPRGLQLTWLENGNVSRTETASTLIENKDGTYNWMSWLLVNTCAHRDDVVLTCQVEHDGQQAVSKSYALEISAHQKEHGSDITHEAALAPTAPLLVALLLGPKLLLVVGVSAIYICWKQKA
Description: (§1) These cells are blocked with donkey IgG and incubated on ice with increasing concentrations of antibodies for 60 minutes, washed and stained with AF647-conjugated donkey F(ab′)₂ anti-human IgG antibodies. Stained cells are washed, fixed, and analyzed by flow cytometry. Median fluorescent intensity is determined and used as a measure of antibody binding.

[3] = biological target: T2, human SIRPβ1 extracellular domain + His-tag (NP_006056.2) (human, UniProt O00241 30-371); assay: SPR, Ab captured, ECD-His analyte
T2 construct: also called hSIRPβ1; HuSIRPβ1
T2 sequence (O00241 other isoform, or with tags, fused parts or gaps): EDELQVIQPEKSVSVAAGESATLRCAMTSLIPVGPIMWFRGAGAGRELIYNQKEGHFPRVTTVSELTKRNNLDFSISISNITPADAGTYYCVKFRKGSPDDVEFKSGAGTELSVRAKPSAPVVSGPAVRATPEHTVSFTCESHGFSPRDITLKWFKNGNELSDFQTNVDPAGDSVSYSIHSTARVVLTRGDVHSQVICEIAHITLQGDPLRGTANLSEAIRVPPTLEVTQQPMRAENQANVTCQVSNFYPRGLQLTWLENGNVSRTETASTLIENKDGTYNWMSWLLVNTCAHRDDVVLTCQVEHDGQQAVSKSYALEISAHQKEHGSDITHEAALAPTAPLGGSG
Method in brief: (§2)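 In HBS-EP+ (1×), captured antibodies are exposed to a twofold concentration series of SIRP extracellular domain carrying a His tag, using 300 s contact at 30 μl/min and a 600 s dissociation window.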

[4] = biological target: T3, human SIRPαV1 extracellular domain + His-tag (NP_542970.1) (human, UniProt P78324 31-373); assay: SPR, Ab captured, ECD-His analyte
T3 construct: also called hSIRPαV1; HuSIRPαV1
T3 sequence (P78324 other isoform, or with tags, fused parts or gaps): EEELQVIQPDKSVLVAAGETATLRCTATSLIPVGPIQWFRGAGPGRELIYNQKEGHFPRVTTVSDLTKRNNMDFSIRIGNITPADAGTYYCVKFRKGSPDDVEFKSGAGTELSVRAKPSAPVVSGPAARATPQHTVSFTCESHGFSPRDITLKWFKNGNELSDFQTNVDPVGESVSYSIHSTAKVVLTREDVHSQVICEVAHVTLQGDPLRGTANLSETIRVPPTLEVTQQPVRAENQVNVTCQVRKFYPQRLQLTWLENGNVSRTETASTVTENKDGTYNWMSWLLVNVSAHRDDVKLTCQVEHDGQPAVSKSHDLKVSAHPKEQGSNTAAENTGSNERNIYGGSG
Method in brief: as §2

[5] = biological target: T4, human SIRPαV2 extracellular domain + His-tag (CAA71403.1) (human, UniProt P78324 31-373); assay: SPR, Ab captured, ECD-His analyte
T4 construct: also called hSIRPαV2; HuSIRPαV2
T4 sequence (P78324 other isoform, or with tags, fused parts or gaps): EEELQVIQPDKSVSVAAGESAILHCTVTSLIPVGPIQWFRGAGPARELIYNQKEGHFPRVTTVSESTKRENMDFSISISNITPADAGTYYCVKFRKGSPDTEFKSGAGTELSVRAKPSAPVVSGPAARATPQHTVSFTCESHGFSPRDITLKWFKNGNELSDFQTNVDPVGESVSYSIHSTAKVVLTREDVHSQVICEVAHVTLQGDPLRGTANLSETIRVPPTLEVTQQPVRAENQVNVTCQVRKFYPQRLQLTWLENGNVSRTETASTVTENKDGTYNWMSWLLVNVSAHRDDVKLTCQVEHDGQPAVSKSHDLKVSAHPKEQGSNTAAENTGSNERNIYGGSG
Method in brief: as §2

[6] = biological target: T5, human SIRPβL/SIRPβ1v3 extracellular domain + His-tag (NP_001129316.1) (human, UniProt Q5TFQ8 30-371); assay: SPR, Ab captured, ECD-His analyte
T5 construct: also called hSIRPβ1v3; HuSIRPβ1v3
T5 sequence (Q5TFQ8 other isoform, or with tags, fused parts or gaps): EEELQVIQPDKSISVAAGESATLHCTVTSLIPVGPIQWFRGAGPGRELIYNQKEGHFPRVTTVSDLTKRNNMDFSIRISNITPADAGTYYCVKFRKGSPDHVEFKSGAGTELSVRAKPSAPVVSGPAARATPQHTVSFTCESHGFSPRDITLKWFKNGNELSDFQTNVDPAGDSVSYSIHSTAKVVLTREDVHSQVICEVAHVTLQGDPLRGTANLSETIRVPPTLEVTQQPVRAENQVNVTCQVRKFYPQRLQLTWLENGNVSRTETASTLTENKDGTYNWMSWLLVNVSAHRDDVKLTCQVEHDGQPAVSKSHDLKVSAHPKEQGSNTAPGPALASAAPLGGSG
Method in brief: as §2

[7] = biological target: T2, human SIRPβ1 extracellular domain + …; assay: SPR, Ab captured, ECD-His analyte; remark: listed apart in the source
Method in brief: as §2

[8] = biological target: T6, human SIRPγ extracellular domain + His-tag (NP_061026.2) (human, UniProt Q9P1W8 29-360); assay: SPR, Ab captured, ECD-His analyte
T6 construct: also called hSIRPγ; HuSIRPγ
T6 sequence (Q9P1W8 29-360): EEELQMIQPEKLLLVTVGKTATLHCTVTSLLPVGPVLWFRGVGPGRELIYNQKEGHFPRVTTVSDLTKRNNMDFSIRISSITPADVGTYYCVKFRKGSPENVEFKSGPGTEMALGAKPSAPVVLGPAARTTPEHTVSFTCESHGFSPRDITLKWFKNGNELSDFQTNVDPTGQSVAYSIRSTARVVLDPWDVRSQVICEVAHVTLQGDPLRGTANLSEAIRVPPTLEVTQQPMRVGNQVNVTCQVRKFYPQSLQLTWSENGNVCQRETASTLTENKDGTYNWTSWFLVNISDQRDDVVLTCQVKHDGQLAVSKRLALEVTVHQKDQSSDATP
Method in brief: as §2

[9] = biological target: T3, human SIRPαV1 extracellular domain + …; assay: SPR, Ab captured, ECD-His analyte; remark: listed apart in the source
Method in brief: as §2

[10] = biological target: T4, human SIRPαV2 extracellular domain + …; assay: SPR, Ab captured, ECD-His analyte; remark: listed apart in the source
Method in brief: as §2

[11] = biological target: T5, human SIRPβL/SIRPβ1v3 extracellular …; assay: SPR, Ab captured, ECD-His analyte; remark: listed apart in the source
Method in brief: as §2

[12] = biological target: T7, full-length human SIRPβ1 (NP_006056.2) on cells (human, UniProt O00241 30-398); assay: flow cytometry, U937 SIRPα-KO transfectants
T7 construct: also called β1 WT
T7 sequence (O00241 30-398): as the sequence (O00241 30-398 D130H) above, with H101D counted along it
Description: as §1, with “Antibody binding to cells expressing full-length human SIRPβ1 (NP_006056.2) and SIRPβL (NP_001129316.1) is evaluated by flow cytometry. SIRPβ1- or SIRPβL-expressing U937^{SIRPα KO}” for “These”, “secondary reagent. Cells” for “antibodies. Stained cells”

[13] = biological target: T8, full-length human SIRPβL (NP_001129316.1) on cells (human, UniProt Q5TFQ8 30-398); assay: flow cytometry, U937 SIRPα-KO cells expressing full-length human SIRPβL
T8 construct: one molecule for U937 SIRPα-KO transfectants (NP_001129316.1) and Expi-CHO transfectants (Q5TFQ8); also called SIRPβ1v3; βL WT
T8 sequence (Q5TFQ8 30-398): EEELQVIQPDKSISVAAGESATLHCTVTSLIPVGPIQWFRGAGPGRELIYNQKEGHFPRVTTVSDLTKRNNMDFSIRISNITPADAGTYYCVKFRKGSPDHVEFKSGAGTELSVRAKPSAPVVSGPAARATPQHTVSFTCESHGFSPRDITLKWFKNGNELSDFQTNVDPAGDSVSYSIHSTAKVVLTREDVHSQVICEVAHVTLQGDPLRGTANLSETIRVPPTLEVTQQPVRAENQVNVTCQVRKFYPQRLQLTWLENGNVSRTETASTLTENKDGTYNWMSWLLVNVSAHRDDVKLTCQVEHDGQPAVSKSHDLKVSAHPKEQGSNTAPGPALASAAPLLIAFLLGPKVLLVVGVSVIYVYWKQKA
Description: as §1, with “Antibody binding to cells expressing full-length human SIRPβ1 (NP_006056.2) and SIRPβL (NP_001129316.1) is evaluated by flow cytometry. SIRPβ1- or SIRPβL-expressing U937^{SIRPα KO}” for “These”, “secondary reagent. Cells” for “antibodies. Stained cells”

[14] = biological target: ED-tagged human SIRPα V2 receptor on Jurkat signaling reporter cells (human, UniProt P78324 31-504); assay: cell-based or functional assay
[15] = biological target: ED-tagged human SIRPα V1 receptor on Jurkat signaling reporter cells (human, UniProt P78324 31-504); assay: cell-based or functional assay
[16] = biological target: T9, full-length human SIRPγ (NP_061026.2) on cells (human, UniProt Q9P1W8 29-387); assay: flow cytometry, primary CD3+ T cells
T9 construct: also called CHO-hSIRPγ; γ WT
T9 sequence (Q9P1W8 29-387): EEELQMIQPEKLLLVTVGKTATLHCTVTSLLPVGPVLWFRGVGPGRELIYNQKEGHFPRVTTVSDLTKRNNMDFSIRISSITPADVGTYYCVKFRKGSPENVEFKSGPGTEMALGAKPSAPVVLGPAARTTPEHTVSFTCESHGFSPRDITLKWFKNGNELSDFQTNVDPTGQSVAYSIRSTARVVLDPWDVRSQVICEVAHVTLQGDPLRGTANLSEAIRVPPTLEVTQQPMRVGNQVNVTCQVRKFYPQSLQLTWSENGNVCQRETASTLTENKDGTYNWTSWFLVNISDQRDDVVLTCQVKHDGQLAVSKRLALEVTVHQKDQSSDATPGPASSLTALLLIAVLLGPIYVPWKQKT
Description: (§3) Antibody binding to primary human T cells expressing endogenous SIRPγ is evaluated by flow cytometry. Human peripheral blood mononuclear cells (PBMCs) are blocked with donkey IgG and incubated on ice with increasing concentrations of antibody for 60 minutes, washed and stained with AF647-conjugated donkey F(ab′)₂ anti-human IgG secondary reagent. […] Cells are washed, fixed, and analyzed by flow cytometry. Median fluorescent intensity of CD3+ gated population is determined and used as a measure of antibody binding.

[17] = biological target: T8, full-length human SIRPβL …; assay: flow cytometry, U937 SIRPα-KO transfectants
Description: Antibody binding to cells expressing full-length human SIRPβ1 (NP_006056.2) and SIRPβL (NP_001129316.1) is evaluated by flow cytometry. SIRPβ1- or SIRPβL-expressing U937^{SIRPα KO} cells are blocked with donkey IgG and incubated on ice with increasing concentrations of antibodies for 60 minutes, washed and stained with AF647-conjugated donkey F(ab′)₂ anti-human IgG secondary reagent. Cells are washed, fixed, and analyzed by flow cytometry. Median fluorescent intensity is determined and used as a measure of antibody binding.

[18] = biological target: T10, full-length human SIRPαV2 (CAA71403.1) on cells (human, UniProt P78324 31-504); assay: flow cytometry, competition with CD47 tetramer, monocytes V2V2
T10 construct: one molecule for CHO-K1 and Expi-CHO transfectants (CAA71403.1) and for endogenous V2 on THP-1 cells and on CD14+ monocytes of V2/V2 donors; also called CHO-hSIRPαV2; αV2 WT
T10 sequence (P78324 other isoform, or with tags, fused parts or gaps): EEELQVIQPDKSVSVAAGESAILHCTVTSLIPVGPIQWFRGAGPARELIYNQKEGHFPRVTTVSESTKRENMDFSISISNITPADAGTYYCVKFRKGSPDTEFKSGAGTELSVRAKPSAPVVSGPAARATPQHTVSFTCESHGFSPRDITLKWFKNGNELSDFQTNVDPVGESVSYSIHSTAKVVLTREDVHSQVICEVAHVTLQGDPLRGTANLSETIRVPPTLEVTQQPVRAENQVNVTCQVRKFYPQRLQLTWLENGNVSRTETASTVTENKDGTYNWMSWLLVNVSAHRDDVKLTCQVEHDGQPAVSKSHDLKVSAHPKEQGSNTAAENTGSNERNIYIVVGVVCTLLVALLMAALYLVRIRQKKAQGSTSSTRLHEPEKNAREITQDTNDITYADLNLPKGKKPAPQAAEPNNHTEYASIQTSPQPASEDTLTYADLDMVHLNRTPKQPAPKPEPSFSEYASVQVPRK
Description: (§4) Cells are washed, fixed, and analyzed by flow cytometry. Median fluorescent intensity of CD14+gated population is determined and used as a measure of CD47 binding.

[19] = biological target: T10, full-length human SIRPαV2 (CAA71403.1) …; assay: flow cytometry, CD14+ monocytes V2V2
Description: as §3, with “human” for “human T”, “expressing SIRPα” for “expressing endogenous SIRPγ”, “(PBMCs) from donors genotyped as homozygous for the SIRPα V1 allele, V2 allele, or heterozygous for both alleles” for “(PBMCs)”, “of the CD14+” for “of CD3+ gated”, “population was” for “population is”

[20] = biological target: T11, full-length human SIRPαV1 (NP_542970.1) on cells (human, UniProt P78324 31-504); assay: flow cytometry, competition with CD47 tetramer, monocytes V1V1
T11 construct: one molecule for CHO-K1 and Expi-CHO transfectants (NP_542970.1) and for endogenous V1 on U-937 cells and on CD14+ monocytes of V1/V1 donors; also called CHO-hSIRPαV1; αV1 WT
T11 sequence (P78324 31-504): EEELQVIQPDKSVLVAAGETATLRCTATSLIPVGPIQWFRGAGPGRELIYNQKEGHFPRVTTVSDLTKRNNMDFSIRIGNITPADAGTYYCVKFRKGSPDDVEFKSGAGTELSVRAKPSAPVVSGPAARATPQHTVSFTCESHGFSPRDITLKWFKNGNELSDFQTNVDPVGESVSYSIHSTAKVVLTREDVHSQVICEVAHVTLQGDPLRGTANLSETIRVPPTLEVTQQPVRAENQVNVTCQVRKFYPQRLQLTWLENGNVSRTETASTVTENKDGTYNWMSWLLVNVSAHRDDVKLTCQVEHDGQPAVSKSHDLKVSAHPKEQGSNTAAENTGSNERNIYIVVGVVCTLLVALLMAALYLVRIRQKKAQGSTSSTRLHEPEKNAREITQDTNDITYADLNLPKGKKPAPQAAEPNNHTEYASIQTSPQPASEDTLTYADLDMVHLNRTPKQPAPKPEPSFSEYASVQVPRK
Description: as §4

[21] = biological target: T11, full-length human SIRPαV1 (NP_542970.1) …; assay: flow cytometry, CD14+ monocytes V1V1
Description: as §3, with “human” for “human T”, “expressing SIRPα” for “expressing endogenous SIRPγ”, “(PBMCs) from donors genotyped as homozygous for the SIRPα V1 allele, V2 allele, or heterozygous for both alleles” for “(PBMCs)”, “of the CD14+” for “of CD3+ gated”, “population was” for “population is”

- binding result [1]: no binding
- binding result [2]: no binding
- Kd [3]: 771 nM
- Kd [4]: 0.425 nM
- Kd [5]: 0.33 nM
- Kd [6]: 0.81 nM
- Kd [7]: 1230 nM
- binding result [8]: no binding (tested: 1000 nM)
- Kd [9]: 0.456 nM
- Kd [10]: 0.42 nM
- Kd [11]: 1.16 nM
B1: Antibody E (antibody, human IgG1, kappa, L234A L235A)
heavy: not shown
light: DIVMTQSPLSLPVTPGEPASISCKSSQSLLYSNGYNYLDWYLQRPGQSPQLLIYLGSNRASGVPDRFSGSGSGTDFTLKISRVEAEDVGVFYCMQALQTPLTFGGGTKVEIKRTVAAPSVFIFPPSDEQLKSGTASVVCLLNNFYPREAKVQWKVDNALQSGNSQESVTEQDSKDSTYSLSSTLTLSKADYEKHKVYACEVTHQGLSSPVTKSFNRGEC

- EC50 [12]: 0.3 nM
- binding result [13]: no binding (tested: about 200 nM)
- Blockade of Cellular CD47-Mediated SIRPα Signaling; IC50 [14]: 0.02 nM
- Blockade of Cellular CD47-Mediated SIRPα Signaling; IC50 [15]: 0.04 nM
- binding result [16]: no binding
B2: Antibody A11 (antibody, human IgG4 S228P, kappa)
heavy: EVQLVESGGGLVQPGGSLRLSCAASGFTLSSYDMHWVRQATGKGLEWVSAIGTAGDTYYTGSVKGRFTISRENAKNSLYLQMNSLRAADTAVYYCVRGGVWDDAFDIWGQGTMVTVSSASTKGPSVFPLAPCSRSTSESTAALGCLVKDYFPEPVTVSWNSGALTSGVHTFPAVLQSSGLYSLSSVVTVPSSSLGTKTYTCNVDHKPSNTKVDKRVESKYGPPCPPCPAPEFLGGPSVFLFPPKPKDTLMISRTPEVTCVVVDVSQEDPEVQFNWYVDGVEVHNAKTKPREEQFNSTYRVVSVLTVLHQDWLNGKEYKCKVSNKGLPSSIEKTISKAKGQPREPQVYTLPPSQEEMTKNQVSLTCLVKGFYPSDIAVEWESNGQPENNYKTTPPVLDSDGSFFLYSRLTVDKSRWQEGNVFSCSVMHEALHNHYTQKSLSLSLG
light: DIQMTQSPSSLSASVGDRVTITCRASQDINNYLAWFQQKPGKAPKSLIYTASSLHSGVPSKFSGSGSGTDFTLTISSLQPEDFATYYCQQYVSYPYTFGQGTKLEIKRTVAAPSVFIFPPSDEQLKSGTASVVCLLNNFYPREAKVQWKVDNALQSGNSQESVTEQDSKDSTYSLSSTLTLSKADYEKHKVYACEVTHQGLSSPVTKSFNRGEC

- EC50 [12]: 0.1 nM
- EC50 [17]: 0.2 nM
- IC50 [18]: 0.05 nM
- EC50 [19]: 0.1 nM
- IC50 [20]: 0.02 nM
- EC50 [21]: 0.1 nM
- EC50 [16]: 0.02 nM
B3: anti-SIRPα antibody SIRP AB11 (antibody, V domains shown)
VH: QVQLVQSGAEVKKPGASVKVSCKASGYTFRGYGISWVRQAPGQGLEWMGWISAYGGETNYAQKLQGRVTMTTDTSTSTAYMELRSLRSDDTAVYYCAREAGSSWYDFDLWGRGTLVTVSS
VL: DIQMTQSPSSVSASVGDRVTITCRASQGISSWLAWYQQKPGKAPKLLIYAASNLQSGVPSRFSGSGSGTDFTLTISSLQPEDFATYYCQQGASFPITFGGGTKVEIKR

Reference: patent US20230012273A1 (Boehringer Ingelheim, published 2023)
